Data published in doi:10.1101/2021.08.28.458007v1.

Each substance was assayed on O=C1O[C@H]([C@@H](O)CO)C(=O)C1=O (assay: purified protein). Conditions: co-substrate GSH, 50 mM phosphate pH 6.8, 0.2 mM EDTA.

Substance | Km | kcat [s⁻¹]
HsCLIC3 (Homo sapiens) | 310.2 (±140.2) μM | 0.00197
HsCLIC4 (Homo sapiens) | 495.1 (±316.6) μM | 0.00222
HsCLIC1 (Homo sapiens; K13A) | 4121 (±858.6) μM | 0.0002
HsCLIC1 (Homo sapiens) | 2753 (±939.5) μM | 0.00542
